Data as given in US20200270325A1 (Merck Sharp & Dohme, published 2020).
Numbered stars: 1 amine (or outer) side, 2 acyl side, 3 side chain; on linkers, the order of the positions; unused ones are H or OH. Square brackets hold non-standard residues; d marks the D form. Primed or numbered codes have the meaning given here. Side chains are listed from the residue outwards. Ends that are not written are not given here. * marks the point of attachment. Phe(4-CH2NH2) = NCc1ccc(C[C@H](N)C(=O)O)cc1; C18 diacid = O=C(O)CCCCCCCCCCCCCCCCC(=O)*; γGlu = O=C(O)[C@H](CCC(=O)[*:2])N[*:1]; Met(O2) = CS(=O)(=O)CC[C@H](N)C(=O)O; PEG2′ = not defined here; AEEA = NCCOCCOCC(=O)O; Aib = CC(C)(N)C(=O)O

B1: TP679 (peptide)
peptide: H[Aib]QGTFTSDYSKYLDARAAQ[Phe(4-CH2NH2)]([AEEA-AEEA-AEEA-γGlu-C18 diacid])FVQWLLDT-NH2
modifications: N-terminus assumed
SMILES: CC(C)C[C@H](NC(=O)[C@H](Cc1ccc(O)cc1)NC(=O)[C@H](CCCCN)NC(=O)[C@H](CO)NC(=O)[C@H](Cc1ccc(O)cc1)NC(=O)[C@H](CC(=O)O)NC(=O)[C@H](CO)NC(=O)[C@@H](NC(=O)[C@H](Cc1ccccc1)NC(=O)[C@@H](NC(=O)CNC(=O)[C@H](CCC(N)=O)NC(=O)C(C)(C)NC(=O)[C@@H](N)Cc1c[nH]cn1)[C@@H](C)O)[C@@H](C)O)C(=O)N[C@@H](CC(=O)O)C(=O)N[C@@H](C)C(=O)N[C@@H](CCCNC(=N)N)C(=O)N[C@@H](C)C(=O)N[C@@H](C)C(=O)N[C@@H](CCC(N)=O)C(=O)N[C@@H](Cc1ccc(CNC(=O)COCCOCCNC(=O)COCCOCCNC(=O)COCCOCCNC(=O)CC[C@H](NC(=O)CCCCCCCCCCCCCCCCC(=O)O)C(=O)O)cc1)C(=O)N[C@@H](Cc1ccccc1)C(=O)N[C@H](C(=O)N[C@@H](CCC(N)=O)C(=O)N[C@@H](Cc1c[nH]c2ccccc12)C(=O)N[C@@H](CC(C)C)C(=O)N[C@@H](CC(C)C)C(=O)N[C@@H](CC(=O)O)C(=O)N[C@H](C(N)=O)[C@@H](C)O)C(C)C
B2: TP678 (peptide)
peptide: H[Aib]QGTFTSDYSKYLDARAA[Phe(4-CH2NH2)]([AEEA-AEEA-AEEA-γGlu-C18 diacid])DFVQWLLDT-NH2
modifications: N-terminus assumed
SMILES: CC(C)C[C@H](NC(=O)[C@H](Cc1ccc(O)cc1)NC(=O)[C@H](CCCCN)NC(=O)[C@H](CO)NC(=O)[C@H](Cc1ccc(O)cc1)NC(=O)[C@H](CC(=O)O)NC(=O)[C@H](CO)NC(=O)[C@@H](NC(=O)[C@H](Cc1ccccc1)NC(=O)[C@@H](NC(=O)CNC(=O)[C@H](CCC(N)=O)NC(=O)C(C)(C)NC(=O)[C@@H](N)Cc1c[nH]cn1)[C@@H](C)O)[C@@H](C)O)C(=O)N[C@@H](CC(=O)O)C(=O)N[C@@H](C)C(=O)N[C@@H](CCCNC(=N)N)C(=O)N[C@@H](C)C(=O)N[C@@H](C)C(=O)N[C@@H](Cc1ccc(CNC(=O)COCCOCCNC(=O)COCCOCCNC(=O)COCCOCCNC(=O)CC[C@H](NC(=O)CCCCCCCCCCCCCCCCC(=O)O)C(=O)O)cc1)C(=O)N[C@@H](CC(=O)O)C(=O)N[C@@H](Cc1ccccc1)C(=O)N[C@H](C(=O)N[C@@H](CCC(N)=O)C(=O)N[C@@H](Cc1c[nH]c2ccccc12)C(=O)N[C@@H](CC(C)C)C(=O)N[C@@H](CC(C)C)C(=O)N[C@@H](CC(=O)O)C(=O)N[C@H](C(N)=O)[C@@H](C)O)C(C)C

molecular target: human GLP-1 receptor (GLP1R) (human, UniProt P43220 24-463); assay: cell-based or functional assay

B1 and H[Aib]QGTFTSDYSKYLDARAAQDFVK([PEG2′-PEG2′-PEG2′-γGlu-C18‑OH])WL[Met(O2)]DT-NH2 [TP680] are within 1.5-fold of each other in “GLP1R EC50 human” value: 0.18 nM for the first, 0.19 nM for the second.

In the case of B2, the “GLP1R EC50 human” value is reported as 0.91 nM.

molecular target: human Glucagon receptor (GCGR) (human, UniProt P47871 26-477); assay: cell-based or functional assay
Sequence (P47871 26-477): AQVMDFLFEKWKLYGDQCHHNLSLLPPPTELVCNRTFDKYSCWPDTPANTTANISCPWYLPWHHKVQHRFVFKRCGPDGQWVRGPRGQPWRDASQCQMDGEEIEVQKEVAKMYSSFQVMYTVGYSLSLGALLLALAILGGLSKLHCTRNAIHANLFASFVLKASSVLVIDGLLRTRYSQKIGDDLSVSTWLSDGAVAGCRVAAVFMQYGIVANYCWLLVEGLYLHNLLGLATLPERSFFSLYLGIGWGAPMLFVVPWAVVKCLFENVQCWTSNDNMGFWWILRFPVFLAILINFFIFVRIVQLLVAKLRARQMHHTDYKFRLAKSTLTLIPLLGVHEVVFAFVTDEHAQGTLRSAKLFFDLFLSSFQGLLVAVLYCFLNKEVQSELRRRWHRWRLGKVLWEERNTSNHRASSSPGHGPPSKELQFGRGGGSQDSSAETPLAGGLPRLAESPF

Going from B1 to H[Aib]QGTFTSDYSKYLDARAAQDFVK([PEG2′-PEG2′-PEG2′-γGlu-C18‑OH])WL[Met(O2)]DT-NH2 [TP680], the “GCGR EC50 human” value rises from 0.13 nM to 0.59 nM (4.5-fold).

For B2, the “GCGR EC50 human” value was 0.25 nM.
